The supplement of paper PMC7877785
± gives the uncertainty stated by the source.

Experiment: self-splicing fitness, log relative to wild type (ln ratio); higher = more splicing; Tetrahymena group I intron in knt gene, E. coli kanamycin selection, DiMSum; sequences stand for … in CUCUCU…GGAGGGAAAAGUUAUCAGGCAUGCACCUGGUAGCUAGUCUUUAAACCAAUAGAUUGCAUCGGUUUAAAAGGCAAGACCGUCAAAUUGCGGGAAAGGGGUCAACAGCCGUUCAGUACCAAGUCUCAGGGGAAACUUUGAGAUGGCCUUGCAAAGGGUAUGGUAAUAAGCUGACGGACAUGGUCCUAACCACGCAGCCAAGUCCUAAGUCAACAGAUCUUCUGUUGAUAUGGAUGCAGUUCACAGACUAAAUGUCGGUCGGGGAAGAUGUAUUCUUCUCAUAAGAUAUAGUCGGACCUCUCCUUAAUGGGAGCUAGCGGAUGAAGUGAUGCAACACUGGAGCCGCUGGGAACUAAUUUGUAUGCGAAAGUAUAUUGAUUAGUUUUGGAGUACUCGUGGUCG
Procedure, shortened: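 Six replicate transformations of E. coli BL21(DE3) with a pET-22b(+) library were grown overnight at 37°C or 30°C. The library randomised all eight P1ex-region intron nucleotides, the intron lying in the knt kanamycin-resistance gene, and plates were LB agar with or without 25 μg/mL kanamycin plus 100 μg/mL carbenicillin, 50 μM IPTG and 0.2% rhamnose. Pooled colonies were amplicon-sequenced on an Illumina HiSeq 2500, and fitness is the DiMSum error-weighted combination of wild-type-normalised replicate fold changes, kanamycin versus none.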

| Sequence | self-splicing fitness (ln) (30 °C) | self-splicing fitness (ln) (37 °C) |
| --- | --- | --- |
| AAGCAGCAAUAUUACGCUGG | -3.27 ± 0.21 | -1.72 ± 0.15 |
| ACACAGCAAUAUUACGGCCG | -0.675 ± 0.095 | -0.395 ± 0.12 |
| UCUGAGCAAUAUUACGGCGU | -1.82 ± 0.1 | -0.983 ± 0.14 |
| AUGGAGCAAUAUUACGUAUG | -4.28 ± 0.46 | -3.19 ± 0.37 |
| GCUCAGCAAUAUUACGCCGU | -0.521 ± 0.14 | -1.61 ± 0.22 |
| UGCCAGCAAUAUUACGCCAC |  | -2.54 ± 0.29 |
| GUCGAGCAAUAUUACGCGCA | -0.713 ± 0.26 | -1.17 ± 0.21 |
| GCAGAGCAAUAUUACGUCUC |  | -2.17 ± 0.31 |
| UUACAGCAAUAUUACGAUUC | -2.03 ± 0.092 | -0.667 ± 0.097 |
| GGGGAGCAAUAUUACGUUUU | -3.04 ± 0.18 | -2.86 ± 0.25 |
| UCCAAGCAAUAUUACGGUUG | -3.43 ± 0.13 | -3.04 ± 0.19 |
| CAUCAGCAAUAUUACGGUUU | -2.29 ± 0.079 | -0.832 ± 0.094 |
| UACAAGCAAUAUUACGCAAA | -2.24 ± 0.14 | -1.51 ± 0.14 |
| GAGUAGCAAUAUUACGUGCA | -1.35 ± 0.14 | 0.558 ± 0.2 |
| UGAAAGCAAUAUUACGCGGC | -3.44 ± 0.33 | -2.07 ± 0.24 |
| ACAAAGCAAUAUUACGGAAG | -2.47 ± 0.091 | -1.61 ± 0.11 |
| CAGAAGCAAUAUUACGCGCG | -0.373 ± 0.17 | 0.0448 ± 0.29 |
| UGCCAGCAAUAUUACGUGCA | -2.55 ± 0.1 | -1.53 ± 0.12 |
| GAAAAGCAAUAUUACGGAGA | -3.59 ± 0.26 | -2.19 ± 0.21 |
| CUCGAGCAAUAUUACGGGCA | -2.35 ± 0.36 | 0.194 ± 0.26 |

| Sequence | self-splicing fitness (ln) (30 °C) | self-splicing fitness (ln) (37 °C) |
| --- | --- | --- |
| GACCAGCAAUAUUACGCGAC | -2.3 ± 0.11 | -1.04 ± 0.13 |
| GCCCAGCAAUAUUACGCGGU | -3.33 ± 0.16 | -3.02 ± 0.19 |
| AAUCAGCAAUAUUACGUUUG | -2.11 ± 0.092 | -1.94 ± 0.13 |
| ACGCAGCAAUAUUACGGGAA | -2.99 ± 0.14 | -2 ± 0.12 |
| CCUAAGCAAUAUUACGUAAU | -2.38 ± 0.18 | -0.984 ± 0.29 |
| AAGUAGCAAUAUUACGAAUU | -1.94 ± 0.12 | -0.748 ± 0.15 |
| ACGAAGCAAUAUUACGAUCG | -0.102 ± 0.073 | 0.139 ± 0.11 |
| GCCCAGCAAUAUUACGCUUA | -0.569 ± 0.071 | -0.378 ± 0.08 |
| CAAGAGCAAUAUUACGUUCA | -2.46 ± 0.17 | -2.09 ± 0.19 |
| GCGUAGCAAUAUUACGCUUA |  | -2.06 ± 0.32 |
| CGCCAGCAAUAUUACGACUU | -3.35 ± 0.2 | -1.82 ± 0.18 |
| UAAAAGCAAUAUUACGCACA | -0.0521 ± 0.12 | 0.516 ± 0.16 |
| CGGUAGCAAUAUUACGACUA | -0.298 ± 0.14 | 0.0316 ± 0.16 |
| AAGGAGCAAUAUUACGCUUG | -1.86 ± 0.1 | -0.799 ± 0.13 |
| ACUCAGCAAUAUUACGCGGA | -2.79 ± 0.16 | -3.35 ± 0.27 |
| GCGCAGCAAUAUUACGAGAA | -2.67 ± 0.21 | -0.894 ± 0.21 |
| CACUAGCAAUAUUACGUCUU | -3.77 ± 0.3 | -2.75 ± 0.26 |
| CGCUAGCAAUAUUACGAAUA | -2.58 ± 0.19 | -2.57 ± 0.23 |
| UAACAGCAAUAUUACGGAUA | -0.969 ± 0.088 | -0.486 ± 0.1 |
